Source: patent US7585511

Key:
[1] = target: I58Q/I62Q serum resistance associated protein (SRA), His-tagged (Trypanosoma brucei rhodesiense); assay: pull-down of in vitro synthesized [35S]-apoL-I with mutant His-SRA on Ni-NTA beads, scintillation counting
[2] = target: N-terminal His-tagged version of serum resistance associated protein (SRA) (aa 1-251), wild type (Trypanosoma brucei rhodesiense); assay: pull-down of in vitro synthesized [35S]-apoL-I mutant with His-SRA on Ni-NTA beads, scintillation counting

“in vitro synthesized [35S]-apoL-I, wild type, with C-terminal V5 tag (from UniProt O14791 16-398)” showed a binding (%) [1] of 50%.

In the case of “[35S]-apoL-I truncated version ending at aa 342, with C-terminal V5 tag (from UniProt O14791 28-342)”, the binding (%) [2] is reported as 5%.

“[35S]-apoL-I L345Y/L352A/Y354L point mutant, with C-terminal V5 tag (from UniProt O14791 16-398)” was tested, and the binding (%) [2] was 67%.

For “[35S]-apoL-I truncated version ending at aa 355, with C-terminal V5 tag (from UniProt O14791 28-355)”, the binding (%) [2] was 24%.
